According to PMC3702670 (Nature structural & molecular biology, 2013):
Substitutions are numbered along the chain they refer to. Where two headings read alike, the source gives them in different places.

Tests used:
[1] = target: the molecule itself; experiment: […]
[2] = target: the molecule itself; experiment: SPR
[3] = target: T1, GR DBD WT (rat, UniProt P06536 440-525); experiment: SPR
[4] = target: T1, GR DBD WT; experiment: NMR
[5] = target: T2, GR DBD A477T (rat, UniProt P06536 440-525, A477T); experiment: NMR
[6] = target: T2, GR DBD A477T; experiment: NMR; remark: listed apart in the source
[7] = target: T1, GR DBD WT; experiment: NMR; remark: listed apart in the source
[8] = target: T1, GR DBD WT; experiment: NMR; remark: listed apart in the source

B1: rat glucocorticoid receptor DNA binding domain, wild type (domain or fragment)
chain: CLVCSDEASGCHYGVLTCGSCKVFFKRAVEGQHNYLCAGRNDCIIDKIRRKNCPACRYRKCLQAGMNLEARKTKKKIKGIQQATAG
B1: binds [1].

B2: rat glucocorticoid receptor DNA binding domain, [change] mutant (domain or fragment)
chain: B1 chain with A38T
B2: binds [2].

B3: Pal-R GBS (dsDNA)
DNA 1: GTACAGAACATTTTGTTCTTCGAC
DNA 2: GTCGAAGAACAAAATGTTCTGTAC
B3: binds [3].

B4: Fkbp5 GBS (dsDNA)
DNA 1: GTACAGAACAGGGTGTTCTTCGAC
DNA 2: GTCGAAGAACACCCTGTTCTGTAC
B4: binds [4]; binds [5].

B5: Gha GBS (dsDNA)
DNA 1: GTACGGAACATAATGTTCCTCGAC
DNA 2: GTCGAGGAACATTATGTTCCGTAC
B5: binds [6]; binds [7].

B6: Sgk GBS (dsDNA)
DNA 1: GTACAGAACATTTTGTCCGTCGAC
DNA 2: GTCGACGGACAAAATGTTCTGTAC
B6: binds [4]; binds [6].

B7: Sgk-ggg GBS (dsDNA)
DNA 1: GTACAGAACAGGGTGTCCGTCGAC
DNA 2: GTCGACGGACACCCTGTTCTGTAC
B7: binds [4].

B8: Gilz GBS (dsDNA)
DNA 1: GTACAGAACATTGGGTTCCTCGAC
DNA 2: GTCGAGGAACCCAATGTTCTGTAC
B8: binds [8].

B9: Pal-ttg GBS (dsDNA)
DNA 1: GTACAGAACATTGTGTTCTTCGAC
DNA 2: GTCGAAGAACACAATGTTCTGTAC
B9: binds [8].
